Measured values published in the DeepSol protein solubility set.

Assay: soluble on expression in E. coli; label from the status in PepcDB or PDB records

Sequence	soluble on expression in E. coli
MVDLKRLRQEPEVFHRAIREKGVALDLEALLALDQEVQELKKRLQEVQTERNQVAKRVPKAPPEEKEALIARGRALGEEAKRLEEALREKEAQLEALLLQVPLPPWPGAPVGGEEANREIKRVGSPPEFSFPPLDHVALMEKNGWWEPRISQVSGSRSYALKGDLALYELALLRFAMDFMARRGFLPMTLPSYAREKAFLGTGHFPAYRDQVWAIAETDLYLTGTAEVVLNALHSGEILPYEALPLRYAGYAPAFRSEAGSFGKDVRGLMRVHQFHKVEQYVLTEASLEASDRAFQELLENAEEILRLLELPYRLVEVATGDMGPGKWRQVDVEVYLPSEGRYRETHSCSALLDWQARRANLRYRDPEGRVRYAYTLNNTALATPRILAMLLENHQLQDGRVRVPKALVPYMGKEVLEPCG	soluble
MVDLKRLRQEPEVFHRAIREKGVALDLEALLAVDEQLHKQQEVIADKQMSVKEDLDKVEPAVIEAQNAVKSIKKQHLVEVRSMANPPAAVKLALESIALLLGESTTDWKQIRSIIMRENFIPTIVNFSAEEISDAIREKMKKNYMSNPSYNYEIVNRASLAAGPMVKWAIAQLNYADMLKRVEPLRNELQKLEDDAKDNQQKLEALLLQVPLPPWPGAPVGGEEANREIKRVGGPPEFSFPPLDHVALMEKNGWWEPRISQVSGSRSYALKGDLALYELALLRFAMDFMARRGFLPMTLPSYAREKAFLGTGHFPAYRDQVWAIAETDLYLTGTAEVVLNALHSGEILPYEALPLRYAGYAPAFRSEAGSFGKDVRGLMRVHQFHKVEQYVLTEASLEASDRAFQELLENAEEILRLLELPYRLVEVATGDMGPGKWRQVDIEVYLPSEGRYRETHSCSALLDWQARRANLRYRDPEGRVRYAYTLNNTALATPRILAMLLENHQLQDGRVRVPQALIPYMGKEVLEPGAHHHHHH	soluble
MVDVVMAPCSPVECRTAVVIDVLRATSTIVTALSNGASGVIPVKTIEEALEKKKEGVLICGERNAQKPKGFNLGNSPLEYRKEKISGKTIVLTTTNGTQVIEKIRSEEIIAASFLNLSAVVEYLKSKEDILLVCAGTNGRFSLEDFLLAGAIVKRLKRNDLGDGAHAAERYFESVENTREEIKKHSSHAKRLISLGFENDIEFCTTEDLFKTVPALVNGVFILKEFP	soluble
MVEATAQETDRPRFSFSIAAREGKARTGTIEMKRGVIRTPAFMPVGTAATVKALKPETVRATGADIILGNTYHLMLRPGAERIAKLGGLHSFMGWDRPILTDSGGFQVMSLSSLTKQSEEGVTFKSHLDGSRHMLSPERSIEIQHLLGSDIVMAFDECTPYPATPSRAASSMERSMRWAKRSRDAFDSRKEQAENAALFGIQQGSVFENLRQQSADALAEIGFDGYAVGGLAGGEGQDEMFRVLDFSVPMLPDDKPHYLMGVGKPDDIVGAVERGIDMFDCVLPTRSGRNGQAFTWDGPINIRNARFSEDLKPLDSECHCAVCQKWSRAYIHHLIRAGEILGAMLMTEHNIAFYQQLMQKIRDSISEGRFSQFAQDFRARYFARNS	soluble
MVEPGRIGGNQTRLAAVLLDVSTPNTLNADFDLMRSVAGITDARNEEIRAMLQAFIGRMSGVPPSVWGGLAAARFQDVVDRWNAESTRLYHVLHAIADTIRHNEAALREAGQIHARHIAAAGGDL	soluble
MVEVESDSVAERDRSSFLAGHDAIRLAKSCVDSPPERWYAALYQVYADLTKLRCWSNVEVVYSDSATFPTGLLGPLFEEDSMVQELHSAQCILGSERACFHVRCCIVGSPPSGRAINALSPQSETRTEERIITSRREPEVVIAVPMHAMLKLSNLDQALRMSSHIEGIVKNRHVADSSASTHSTDRQAGSRKSSVIFGFVDEDTTTAYYRIREGACESNDRREFSTDDIASCLAQERT	not soluble
MVFDTHLHTLFSTDSKMNIEEAIDAGEKKNLGIIITEHIDLNYPVKGEFVFDIDKYFKEYNKYRSNKVLLGVEIGMGEEIKEQNKSINDKYEFDYVLGSIHLLNGLDLYEKTIYKSSPKKEVFEMYFKTMLACLRCHEYIDSLAHIDYISRYAAYHDGEIYYNEYSDYIDEVLKFIVDREIVIEINTRRLNKKEVCENLMPIYKRYSELGGRFVTIGSDSHYKDSIGLNFKNALKMAENCNLKPVFFEKRLMKYA	not soluble
MVGPARPQIVLFGSSIVQMSFGHGGWGAILSEVYARKADIILRGYYGWNSSRALEVVDQVFPKDAAVQPSLVIVYFGGNDSMAPHSSGLGPHVPLTEYVDNMKKIALHLQSLSDFTRIIFLSSPPVDEAKVRQNQSPYLSEVIRTNDLCKTYSDACVELCQELGLEVVDLFSTFQKADDWKTVCFTDGIHLSAQGSKIVAGEILRVVKEAEWHPSLHWKSMPTEFADDSPYDLVSADGKQTVNSSEWTYFWEEQWD	soluble
MVGRELFKPVPSSTKPQSNASILARFRTAKSRHQPDRRGAQISANDRKSFVTRETPRTDSCFVSERLAMDDLVQIARCAGGKSVLRLTGVCLLTLLFAIASPAHSTHRPVDDLADVDLQLILAVDVSPSMSKVEQKVQRDGYVGAFRHADIARALKSGERGRIAVLYLEWAGPRQQTVVMPWTIVESLDDALILADRLAALPLTEGRGTSISGALSAAHALFAKSGLRSPRRVIDVSGDGPNNAGLPLQLVHDALTTGGVTINGLAISLRAADTLDSFGPHFIELYYESCVIGGSNAFVVTVENTADFANAIRKKLVNEIAGLSAKVQPATYRSHSRPVVLEHHHHHH	soluble
MVGVRMTKKVLIVEDNELNMKLFHDLLEAQGYETLQTREGLSALSIARENKPDLILMDIQLPEISGLEVTKWLKEDDDLAHIPVVAVTAFAMKGDEERIREGGCEAYISKPISVVHFLETIKRLLERQPA	soluble
MVHMSWFRRRRKSFFDLLEDIFREFEEEFRELEEEFEKLASRVQSRGEEFGKGPYIYGVRITIGPDGVPKVEEFGNIRMARGRPQIREEMEPLVDVIERDDEVWIVADIPGANKDKIKVRATEDKVVIKAENGKKYYKEVELPAKVDPKSAKASYRNGVLEIKLKKIKPAEEGTEVKVE	soluble
MVICLSTEISLVAATLNEIGNIATFLDKVEKELIYYNFEIIIVDDNSSDGTKEYLAERSLKDKNLHVIENPYRVGMLGSLKMGINSAKGKYCIVMDADLQHPPEAILSIIERLNHGCDIVVGSRYVNGGSAGDRNSYRALLSIGAQYLSYLFLRSARSTTDPMSGFFGFQTSMNHDFSYKNRFKLTDMGAKILLLLLAENQNCNVCDVGYVFRSRERGKSKIVSGMSFLERYMSELLDAMIVERQWKNRGCLEHHHHHH	not soluble
MVIDQTDPIYVLFHDEEWGVPVRDDKKLFELLVFSQALAEFSWPSILRRRDDFRKLFEEFDPSAIAQFTEKRLMSLRVNGCLILSEQKLRAIVENAKSVLKVKQEFGSFSNYCWRFVNHKPLRNGYRYGRQVPVKSPKAEYISKDMMQRGFRCVGPTVMYSFLQASGIVNDHLTACFRYQECNVETERETKSHETETKLDLHSPLLV	soluble
MVKDLLEERARELGLLFAWAPLDLPQEAEARHRAWLEAGRHGGMAYLEAPERFHPRKRFPWAKSALLLFAPYAYPDPGTPPGGLRVGRVARYAWTRDYHLVLGEALKALEETARGLGLKAKGYVDHGPLPERTLAALSGAGWIGKSGYFLSQAFGVHAFIGVLLTPLEVEAAPLHPSRCGRCARCLSACPTEALLGDGTLDARACVSYLTIEHKGPIPPSLWPGIGDWLFGCDLCGEACPWERFGKVWKALRPEPELAHPDLLDFFRLSGRAFGRKYAGTAFLRAGRARMARNALIVLFNLGLGEALFLEATRDPNPLVRRTALRALHLMGKPLDPFLQDPGLREEALALLGEAPEAVHLLQDGREAPGPEVKEQGA	not soluble
MVKITNNVHQFGYEPAEFLSKKLTFTDIVHPEDLDRIVKEMVAFLKNDIVYFEQDYRIFTKGGDIRWVYEKTILKTDDTGLPTLAKGYLLDITER	not soluble
MVKIVELQEKESLYYCTKDEDHFFDRKAFGLKGEKVQKIAVAFANADGGEILVGIADDKDEVIPEKRWQGQESTEAYNSVIQALSELVPSVDFRFDFLTRVNESRNYVLRVKINKGLSVHETAKKKIFLRQGAQSLPVTAPIKILELTHAKGIISEEDSLVNSASIDELDSSIELTKFLSELPIRAPDPITFLLKEKLVDSETWAPTVAAVLLFAENPSAELPKQCAIRIVRYDTDGEDIDRDALTEDNIAIEGSLYQQIQDAYSKIELFLSKNKVWKVEGLVETKYPKETIWEILVNTVIHRDYAISDNVLVSIFNNRIEFKSPGRFTGFVTAENILENRCSRNSKIVRILSKYKDSPNKDLGEGMNTAFQRMRSMGLRDPEILEDGNYVKIILRHSSNDDPETLIMKFIESNGEINNRQARDLTGIDRTEKVTYQFSKLRDKGLIQRKDSSTGLKSSWIAVLEHHHHHH	not soluble
MVKLENKPTIISTGTIVGPKEGEGPLKDYFDMIMTDDLYGEKTWELAESKMVETASQQAIQKAGKKLSDVNYMLGGDLINQIVPASFAARELAIPFLGIYGACSTMAEGLCIGSMLIDGGFADLVLSGTSSHYCTAERQFRFPLELGNQKPMTAQWTVTGAGSVLLAPNGDGPKVKYVTVGKVIDEGIDDGNNMGPAMAPAAIDTIYSYFEDTNDDPNSFDIIATGDLGTLGKQIAEDFLKEKGVDISKVYTDCGIEMFNLKEQDVHCGGSGCGCSATVFAGYIYDKLRKKEFNKVMLVSTGALLSPTSTLQKQTIPCVAHAVVIVNELEHHHHHH	not soluble
MVKQIESKTAFQEALDAAGDKLVVVDFSATWCGPCKMIKPFFHSLSEKYSNVIFLEVDVDDCQDVASECEVKCMPTFQFFKKGQKVGEFSGANKEKLEATINELV	soluble
MVKQVFNFNAGPSALPKPALERAQKELLNFNDTQMSVMELSHRSQSYEEVHEQAQNLLRELLQIPNDYQILFLQGGASLQFTMLPMNLLTKGTIGNYVLTGSWSEKALKEAKLLGETHIAASTKANSYQSIPDFSEFQLNENDAYLHITSNNTIYGTQYQNFPEINHAPLIADMSSDILSRPLKVNQFGMIYAGAQKNLGPSGVTVVIVKKDLLNTKVEQVPTMLQYATHIKSDSLYNTPPTFSIYMLRNVLDWIKDLGGAEAIAKQNEEKAKIIYDTIDESNGFYVGHAEKGSRSLMNVTFNLRNEELNQQFLAKAKEQGFVGLNGHRSVGGCRASIYNAVPIDACIALRELMIQFKENA	soluble
MVKSAVLGFPRIGKNRELKKATEAYWSGKTSAEELLATAKQLRLEHWKLQKAQGVDIIPSNDFSLYDQIMDHSFSFNVIPPRYRLSGLSSLDTYFAMGRGMQRAATADKAAVDVPAGEMVKWFDSNYHFLRPEVSEETDFKLSSTKALDEFLEAKEAGIITRPVLVGPVTYLFIAKAAKGSSIKPIELLPKLLPVYVELIKKLTEAGAEYIQIDEPILTLDLPQEILASYKEAYETLGKIGKLILTTYFGSLQSNADVLKGLPIAGVHVDVVRAPENLDRALAVLGENQIISVGVVSGRNIWKTDFQKATAIIEKAISAVGSERVQVASSSSILHIPHSLSGEDQINPEIKRWFAFAVEKCAELAILTKAANDGPASVRAELEANAADCKARAESPITNVEAVRERQSKVTPQMHERKSPFETRYAKQQASLKLPLFPTTTIGSFPQTKEIRVTRNRFAKGLISQEEYDAFIRKEISDVVKFQEEVGLDVLVHGEPERNDMVQYFGERMEGFVFTVNGWVQSYGSRCVRPPIIVGDVYRPAPMTVKESQYAQSITSKPMKGMLTAPITILRWSFPRDDVHDSVQAQQIALGLRDEVLDLEKAGIKVIQCDEPALREGLPLRRAEWDEYLKWAIDAFRLATAAVQDDTQIHSHFCYSDFNDIFDAIQRLDADVVSIENSKSDMKLLNVLSRYTSCIGPGLFDIHSPRVPPVSEFKERIDAIVKHVPKDHLWLNPDCGLKTRGWPETTADLKNMIAAAREAREQYA	soluble
MVKSIVILIETVTMKIPAVYSDGSFKTFNDSETTAQKLVDSGVVNTFAFGPTLVENGKVAVSENEEVGQDMADNPRTAIVVNEESDRSVHYIVIVSDGRTSESSGLTLYEMAELMKSYGVMTGYNLDVGDSSTMYSNGQVINKPTRKRKQNLRKGGERYRLHRLLKNLLASTFSPPILVLEHHHHHH	soluble
